Here are results for 1 substance from article PMC12135134.

For this assay, the target named is recombinant human IgG1 Fc fragment (recFc), residues 236–444 of the rituximab heavy chain, non-glycosylated homodimer (human). Description: crystal structure; co-crystal of the complex isolated by SEC after mixing affitin and Fc chain 4:1; hanging drop, 20 °C, 24% w/v PEG8000, 0.1 M Tris/HCl pH 8.5; space group P2_(1), 2.90 Å. In general terms: In gel filtration, larger molecules generally elute earlier.

On to “recombinant human IgG1 Fc fragment (recFc), residues 236–444 of the rituximab heavy chain, non-glycosylated homodimer (domain or fragment)”, for which the stoichiometry N (chains in the oligomer) turned out to be 2.
